# Assay results taken from patent US20210371499A1 (University of California, published 2021).
# Target: l[…]/HLA-A*02:01 (l = D-leucine) (human)
# Assay: SEC TAPBPR binding assay
binder,measurement,value
"TAPasin Binding Protein Related (TAPBPR), luminal domain, His6-tagged (other, domain: luminal domain; Molecular chaperone; also called TAPBR; HIS-Tagged TAPBPR; not shown: His6 tag) KPHPAEGQWRAVDVVLDCFLAKDGAHRGALASSEDRARASLVLKQVPVLDDGSLEDFTDFQGGTLAQDDPPIIFEASVDLVQIPQAEALLHADCSGKEVTCEISRYFLQMTETTVKTAAWFMANMQVSGGGPSISLVMKTPRVTKNEALWHPTLNLPLSPQGTVRTAVEFQVMTQTQSLSFLLGSSASLDCGFSMAPGLDLISVEWRLQHKGRGQLVYSWTAGQGQAVRKGATLEPAQLGMARDASLTLPGLTIQDEGTYICQITTSLYRAQQIIQLNIQASPKVRLSLANEALLPTLICDIAGYYPLDVVVTWTREELGGSPAQVSGASFSSLRQSVAGTYSISSSLTAEPGSAGATYTCQVTHISLEEPLGASTQVVPPERR",binding result,no binding
